# Positions count from the first letter of the chain named.
# T1: Macaca mulatta TF on RF/6A cells (Macaca mulatta (protein sequence stated …, UniProt P13726 33-294 (human entry)))
# T1 construct: Endogenous TF of the RF/6A cell line; also called TF-positive Macaca mulatta RF/6A cells; cynomolgus TF
# T1 chain: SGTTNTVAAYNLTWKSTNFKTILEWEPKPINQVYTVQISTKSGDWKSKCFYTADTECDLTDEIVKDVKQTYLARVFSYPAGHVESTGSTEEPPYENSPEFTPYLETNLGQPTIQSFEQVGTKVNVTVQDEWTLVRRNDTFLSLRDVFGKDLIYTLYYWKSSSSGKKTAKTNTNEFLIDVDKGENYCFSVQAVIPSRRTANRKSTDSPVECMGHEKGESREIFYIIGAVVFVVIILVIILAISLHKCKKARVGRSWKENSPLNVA
# T2: cynomolgus monkey TF ECD-His6 (cynomolgus monkey (Macaca fascicularis))
# T2 construct: Expi293-derived; also called TF-His; cTF
# T2 chain: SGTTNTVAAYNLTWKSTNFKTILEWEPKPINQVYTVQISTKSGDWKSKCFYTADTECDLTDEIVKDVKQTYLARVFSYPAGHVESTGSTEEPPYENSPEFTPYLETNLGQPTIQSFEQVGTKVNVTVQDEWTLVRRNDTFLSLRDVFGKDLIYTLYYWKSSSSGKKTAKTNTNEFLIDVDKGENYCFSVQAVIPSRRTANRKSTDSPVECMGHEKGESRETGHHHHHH
# B1: 54E (antibody, human IgG1, V domains shown)
# VH: QVQLVQSGAEVKKPGASVKVSCKASGYTFANYYMHWVRQAPGQGLEWMGIINPSGGITVYAQKFQGRVTMTRDTSTSTVYMELSSLRSEDTAVYYCARGGSKVAALAFDIWGQGTMVTVSS
# VL: DIQMTQSPSSLSASVGDRVTITCQASQDISNSLNWYQQKPGKAPKLLIYDASNLETGVPSRFSGSRSGTDFTFTISSLQPEDIATYYCQQYNFHPLTFGGGTKVEIK
# notes: Human IgG1; also called antibody designated 54E
# B2: 29E (antibody, human IgG1, V domains shown)
# VH: QVQLVESGGGVVQPGRSLRLSCAASGFTFRSYGMHWVRQAPGKGLEWVAVITYDGINKYYADSVEGRFTISRDNSKNTLYLQMNSLRAEDTAVYYCARDGVYYGVYDYWGQGTLVTVSS
# VL: not shown
# notes: Human IgG1; also called antibody designated 29E
# B3: 29E (antibody, human IgG1, V domains shown)
# VH: B2 VH
# VL: not shown
# notes: as for B2
# B4: 39A (antibody, human IgG1, V domains shown)
# VH: QVQLVQSGAEVKKPGSSVKVSCKASGGTFSSNAIGWVRQAPGQGLEWMGSIIPIIGFANYAQKFQGRVTITADESTSTAYMELSSLRSEDTAVYYCARDSGYYYGASSFGMDVWGQGTTVTVSS
# VL: EIVMTQSPATLSVSPGERATLSCRASQSVSSNLAWYQQKPGQAPRLLIYGASTRATGIPARFSGSGSGTEFTLTISSLQSEDFAVYYCEQYNNLPLTFGGGTKVEIK
# notes: Human IgG1; also called antibody designated 39A
# B5: 25A (antibody, human IgG1, V domains shown)
# VH: QVQLVQSGAEVKKPGASVKVSCKASGYTFDVYGISWVRQAPGQGLEWMGWIAPYNGNTNYAQKLQGRVTMTTDTSTSTAYMELRSLRSDDTAVYYCARDAGTYSPFGYGMDVWGQGTTVTVSS
# VL: DIQMTQSPSTLSASVGDRVTITCRASQSISSWLAWYQQKPGKAPKLLIYKASSLESGVPSRFSGSGSGTEFTLTISSLQPDDFATYYCQQFQSLPPFTFGGGTKVEIK
# notes: Human IgG1; also called antibody designated 25A
# B6: 25G1 (antibody, human IgG1, V domains shown)
# VH: B5 VH with D30R, V31S, I51V, N55S, F106Y
# VL: B5 VL with Q27H, S30D, S53Y, Q90L
# notes: Human IgG1; also called antibody designated 25G1
# B7: 25A3 (antibody, human IgG1, V domains shown)
# VH: B5 VH with N55S
# VL: B5 VL with R24Q, S30N, S31N, S52Y, S53N, Q90L
# notes: Human IgG1; also called antibody designated 25A3
# B8: 43B (antibody, human IgG1, V domains shown)
# VH: QVQLQESGPGLVKPSQTLSLTCTVSGGSISSGQYWSWIRQHPGKGLEWIGEIYYSGSTRYNPSLKSRVTISVDTSKNQFSLKLSSVTAADTAVYYCARDAPYYYGGGYYYYMDVWGKGTTVTVSS
# VL: EIVLTQSPGTLSLSPGERATLSCRASQSVSSSYLAWYQQKPGQAPRLLIYGASSRATGIPDRFSGSGSGTDFTLTISRLEPEDFAVYYCQQVGVVPYTFGGGTKVEIK
# notes: Human IgG1; also called antibody designated 43B
# B9: 43B7 (antibody, human IgG1, V domains shown)
# VH: B8 VH
# VL: B8 VL with Q27E, S30D, S53D, V92D
# notes: Human IgG1; also called antibody designated 43B7
# What was measured:
# [1] = biological target: T3, E. coli-derived TF (human (Example 17 does not restate the …, UniProt P13726 33-251)); assay: protein ELISA, plate coated with E. coli-derived TF-His, antibody titrated, HRP secondary, luminescence
# T3 construct: also called E. coli-derived TF-His; E. coli-derived TF protein
# Protocol: (§1) Plates coated with Expi293- or E. coli-derived TF-His were incubated with increasing concentrations of antibodies.
# [2] = biological target: T1, Macaca mulatta TF on RF/6A cells; assay: flow cytometry, IgG1 titrated on TF-positive Macaca mulatta RF/6A cells, 4-parameter fit
# Protocol: (§2) After 2 washes, dead cells were labeled with TO-PRO-3 Iodide (ThermoFisher Scientific) and samples were analyzed on a CytoFLEX flow cytometer (Beckman Coulter, Brea, CA, USA) or Novocyte flow cytometer (ACEA Biosciences, San Diego, CA, USA). The median fluorescence intensities (MFIs) at each dilution were plotted and cell EC₅₀'s were derived using a 4-parameter binding model in Prism (GraphPad, La Jolla, CA, USA).
# [3] = biological target: T4, Expi293-derived TF-His (human (Example 17 does not restate the …, UniProt P13726 33-251)); assay: protein ELISA, plate coated with Expi293-derived TF-His, antibody titrated, HRP secondary, luminescence
# T4 construct: Glycosylated TF ECD-His6 from Expi293 cells; also called Expi293-derived TF protein; TF ECD-His6
# Protocol: as §1
# [4] = biological target: T5, human Tissue Factor (TF) (human, UniProt P13726 33-295); assay: flow cytometry, MDA-MB-231 cells; competitor 20 nM FVII-Fc-Alexa488; antibody at 83 nM
# T5 construct: also called hTF; CD142
# Protocol: (§3) After another 1 hr incubation on ice, cells were washed, stained with a viability dye, and analyzed by flow cytometry. The Alexa488 fluorescence data from viable cells was summarized using median fluorescence intensity.
# [5] = biological target: T5, human Tissue Factor (TF); assay: flow cytometry, A431 cells; antibody at 100 nM; competitor 20 nM 43Ea-Alexa488
# Protocol: as §3
# [6] = biological target: T5, human Tissue Factor (TF); assay: cell-based or functional assay
# [7] = biological target: T5, human Tissue Factor (TF); assay: flow cytometry, MDA-MB-231 cells; competitor 20 nM FVII-Fc-Alexa488; antibody at 250 nM
# Protocol: as §3
# [8] = biological target: T5, human Tissue Factor (TF); assay: flow cytometry, MDA-MB-231 cells; competitor 20 nM FVII-Fc-Alexa488; antibody at 28 nM
# Protocol: as §3
# [9] = biological target: T5, human Tissue Factor (TF); assay: flow cytometry, A431 cells; antibody at 100 nM; competitor 20 nM 25A-Alexa488
# Protocol: as §3
# [10] = biological target: T5, human Tissue Factor (TF); assay: cell-based or functional assay; remark: listed apart in the source
# [11] = biological target: T5, human Tissue Factor (TF); assay: flow cytometry, MDA-MB-231 cells; competitor 20 nM FVII-Fc-Alexa488; antibody at 9.25 nM
# Protocol: as §3
# [12] = biological target: T5, human Tissue Factor (TF); assay: cell-based or functional assay; remark: listed apart in the source
# [13] = biological target: T6, Relipidated TF (UniProt P13726 33-295, limits assumed); assay: cell-based or functional assay
# [14] = biological target: T6, Relipidated TF; assay: cell-based or functional assay; remark: listed apart in the source
# [15] = biological target: T7, human Tissue Factor on human TF-positive cells (human, UniProt P13726 33-295); assay: flow cytometry, antibody titration on HCT-116 cells (endogenous human TF), 4-parameter fit of MFI
# T7 construct: also called hTF; CD142
# Protocol: as §2
# [16] = biological target: T2, cynomolgus monkey TF ECD-His6; assay: BLI (ForteBio Octet)
# [17] = biological target: T8, human TF ECD-His6 (human, UniProt P13726 33-251); assay: BLI (ForteBio Octet)
# T8 construct: Expi293-derived; Biacore used TF-His; also called TF-His; hTF
# [18] = biological target: T9, mouse TF ECD-His6 (mouse, UniProt P20352 29-251); assay: BLI (ForteBio Octet)
# T9 construct: Expi293-derived; also called TF-His; mTF
# [19] = biological target: T2, cynomolgus monkey TF ECD-His6; assay: SPR (Biacore), TF-His over coupled antibody
# Protocol: (§4) Kinetic measurements for the anti-TF antibodies were conducted on an Octet QK384 (Pall ForteBio, Fremont, CA, USA) or a Biacore (GE Healthcare Bio-Sciences).
# (§5) For the Biacore-based measurements, the antibody was covalently coupled to a CM5 or C1 chip using an amine-coupling kit (GE Healthcare Bio-Sciences). Association between the anti-TF antibodies and a five-point three-fold titration of TF-His starting at 25 to 500 nM was measured for 300 sec. Subsequently, dissociation between the anti-TF antibody and TF-His was measured for up to 1800 sec. Kinetic data was analyzed and fitted globally using a 1:1 binding model.
# [20] = biological target: T8, human TF ECD-His6; assay: SPR (Biacore), TF-His over coupled antibody
# Protocol: as §4, §5
# [21] = biological target: T10, full-length mouse TF with a C-terminal FLAG tag on Flp-In-CHO cells (mouse, UniProt P20352 29-294); assay: flow cytometry on CHO cells expressing mouse TF, MFI at 250 nM antibody
# T10 construct: also called CHO-mTF; mouse TF-positive CHO cells
# Protocol: as §2
binder,measurement,setting,value
B1,EC50,[1],380 pM
same,EC50,[2],1280 pM
same,EC50,[3],960 pM
B2,% FVIIa,[4],2%
same,% 43Ea binding,[5],85%
same,% GM-CSF at 2.56 nM antibody,[6],33%
same,% GM-CSF at 6.4 nM antibody,[6],9%
same,% GM-CSF at 16 nM antibody,[6],5%
same,% GM-CSF at 40 nM antibody,[6],6%
same,% GM-CSF at 100 nM antibody,[6],6%
same,% FVIIa,[7],2%
same,% FVIIa,[8],3%
same,% 25A binding,[9],96%
same,% IL8 at 2.56 nM antibody,[10],33%
same,% IL8 at 6.4 nM antibody,[10],5%
same,% IL8 at 16 nM antibody,[10],2%
same,% IL8 at 40 nM antibody,[10],2%
same,% IL8 at 100 nM antibody,[10],2%
same,% FVIIa,[11],5%
same,% FXa at 12.5 nM antibody,[12],81%
same,% FXa at 25 nM antibody,[12],68%
same,% FXa at 50 nM antibody,[12],63%
same,% FXa at 100 nM antibody,[12],66%
B3,EC50,[1],680 pM
same,EC50,[2],530 pM
same,EC50,[3],980 pM
B4,% Peak IIa at 10 nM Ab (TGA with 10 min antibody pre-incubation),[13],11%
same,% Peak IIa at 50 nM Ab (TGA with 10 min antibody pre-incubation),[13],8%
same,% Peak IIa at 100 nM Ab (TGA with 10 min antibody pre-incubation),[13],6%
same,Lag Time at 10 nM Ab (TGA with 10 min antibody pre-incubation),[13],20.9 min
same,Lag Time at 50 nM Ab (TGA with 10 min antibody pre-incubation),[13],29 min
same,Lag Time at 100 nM Ab (TGA with 10 min antibody pre-incubation),[13],32.1 min
same,Peak IIa at 10 nM Ab (TGA with 10 min antibody pre-incubation),[13],30 nM
same,Peak IIa at 50 nM Ab (TGA with 10 min antibody pre-incubation),[13],21 nM
same,Peak IIa at 100 nM Ab (TGA with 10 min antibody pre-incubation),[13],17 nM
same,ttPeak at 10 nM Ab (TGA with 10 min antibody pre-incubation),[13],30.8 min
same,ttPeak at 50 nM Ab (TGA with 10 min antibody pre-incubation),[13],39.7 min
same,ttPeak at 100 nM Ab (TGA with 10 min antibody pre-incubation),[13],43.2 min
same,EC50,[1],340 pM
same,EC50,[2],270 pM
same,EC50,[3],450 pM
same,% ETP at 10 nM Ab (TGA without antibody pre-incubation),[14],58%
same,% Peak IIa at 10 nM Ab (TGA without antibody pre-incubation),[14],24%
same,% Peak IIa at 50 nM Ab (TGA without antibody pre-incubation),[14],8%
same,% Peak IIa at 100 nM Ab (TGA without antibody pre-incubation),[14],6%
same,ETP at 10 nM Ab (TGA without antibody pre-incubation),[14],1330 nM·min
same,Lag Time at 10 nM Ab (TGA without antibody pre-incubation),[14],12.4 min
same,Lag Time at 50 nM Ab (TGA without antibody pre-incubation),[14],33.1 min
same,Lag Time at 100 nM Ab (TGA without antibody pre-incubation),[14],38.1 min
same,Peak IIa at 10 nM Ab (TGA without antibody pre-incubation),[14],84 nM
same,Peak IIa at 50 nM Ab (TGA without antibody pre-incubation),[14],29 nM
same,Peak IIa at 100 nM Ab (TGA without antibody pre-incubation),[14],22 nM
same,ttPeak at 10 nM Ab (TGA without antibody pre-incubation),[14],20.7 min
same,ttPeak at 50 nM Ab (TGA without antibody pre-incubation),[14],43.2 min
same,ttPeak at 100 nM Ab (TGA without antibody pre-incubation),[14],48.3 min
B5,EC50,[1],350 pM
same,EC50,[2],430 pM
same,EC50,[3],540 pM
B6,EC50,[1],310 pM
same,EC50,[2],270 pM
same,EC50,[3],420 pM
B7,EC50,[1],360 pM
same,EC50,[2],270 pM
same,EC50,[3],470 pM
B8,EC50,[15],559 pM
same,Kd,[16],3400 pM
same,Kd,[17],2400 pM
same,Kd,[18],161000 pM
same,Kd,[19],5640 pM
same,Kd,[20],1750 pM
B9,EC50,[15],255 pM
same,Kd,[16],940 pM
same,Kd,[17],860 pM
same,Kd,[18],360000 pM
same,MFI at 250 nM,[21],800000
same,Kd,[19],240 pM
same,Kd,[20],140 pM

# — patent publication US20250361322A1 (ICONIC THERAPEUTICS, published 2025)
